system: Escherichia coli TOP10; assay: shrunken log2 fold change of peptide-encoding DNA abundance (4.5 h post-induction vs induction); higher = less antimicrobial activity (less host growth inhibition); details: time post-induction: 4.5 h; library: site-saturation at positions 5, 18, 19, 20
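Also: peptides expressed intracellularly from a pBAD plasmid library in pooled LB shake-flask culture, induced with 0.3% L-arabinose, DNA abundance read by NGS, three biological replicates, DESeq2 with apeglm shrinkage.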

| Sequence | shrunken log2 fold change |
| --- | --- |
| RRIRPRPPRLPRPRPRPYRSPRP | -0.295 |
| RRIRLRPPRLPRPRPRPKDHPRP | -0.123 |
| RRIRSRPPRLPRPRPRPLFHPRP | -0.63 |
| RRIRPRPPRLPRPRPRPVDVPRP | -0.0323 |
| RRIRHRPPRLPRPRPRPHHMPRP | -0.324 |
| RRIRLRPPRLPRPRPRPLQQPRP | 0.0442 |
| RRIRFRPPRLPRPRPRPLRGPRP | 0.607 |
| RRIRFRPPRLPRPRPRPWFTPRP | -0.574 |
| RRIRHRPPRLPRPRPRPDCRPRP | -0.0597 |
| RRIRWRPPRLPRPRPRPKRMPRP | 0.217 |
| RRIRPRPPRLPRPRPRPVEGPRP | 0.0448 |
| RRIRHRPPRLPRPRPRPTVHPRP | -0.755 |
| RRIRRRPPRLPRPRPRPKPVPRP | 0.191 |
| RRIRPRPPRLPRPRPRPCRGPRP | -0.322 |
| RRIRHRPPRLPRPRPRPIEAPRP | -0.131 |
| RRIRGRPPRLPRPRPRPHNGPRP | 0.0528 |
| RRIRCRPPRLPRPRPRPQPDPRP | 0.102 |
| RRIRDRPPRLPRPRPRPSWIPRP | -0.454 |
| RRIRCRPPRLPRPRPRPEFVPRP | 0.105 |
| RRIRARPPRLPRPRPRPYNMPRP | -0.809 |
| RRIRIRPPRLPRPRPRPDTVPRP | -0.301 |
| RRIRGRPPRLPRPRPRPEDYPRP | 0.555 |
| RRIRLRPPRLPRPRPRPEPNPRP | 0.0389 |
| RRIRNRPPRLPRPRPRPDINPRP | -0.482 |
| RRIRGRPPRLPRPRPRPATNPRP | 0.766 |

| Sequence | shrunken log2 fold change |
| --- | --- |
| RRIRPRPPRLPRPRPRPDSHPRP | 0.101 |
| RRIRDRPPRLPRPRPRPRHHPRP | -0.043 |
| RRIRYRPPRLPRPRPRPFRKPRP | -0.00664 |
| RRIRWRPPRLPRPRPRPCILPRP | -0.39 |
| RRIRYRPPRLPRPRPRPMYPPRP | -0.00192 |
| RRIRDRPPRLPRPRPRPSIWPRP | 0.262 |
| RRIRMRPPRLPRPRPRPNRLPRP | 0.0386 |
| RRIRRRPPRLPRPRPRPGPRPRP | 0.917 |
| RRIRVRPPRLPRPRPRPKRRPRP | -0.0117 |
| RRIRARPPRLPRPRPRPHYNPRP | -0.467 |
| RRIRDRPPRLPRPRPRPNRTPRP | -0.477 |
| RRIRLRPPRLPRPRPRPLWIPRP | -0.399 |
| RRIRYRPPRLPRPRPRPMWRPRP | -0.27 |
| RRIRDRPPRLPRPRPRPMITPRP | -0.115 |
| RRIRRRPPRLPRPRPRPEIYPRP | 0.0166 |
| RRIRGRPPRLPRPRPRPQADPRP | 0.43 |
| RRIRYRPPRLPRPRPRPDQRPRP | -0.24 |
| RRIRNRPPRLPRPRPRPSAIPRP | -0.354 |
| RRIRSRPPRLPRPRPRPHSQPRP | 0.0681 |
| RRIRCRPPRLPRPRPRPWCAPRP | -0.0685 |
| RRIRRRPPRLPRPRPRPPLYPRP | 0.851 |
| RRIRGRPPRLPRPRPRPNLWPRP | 0.671 |
| RRIRYRPPRLPRPRPRPITYPRP | -0.0505 |
| RRIRRRPPRLPRPRPRPVHDPRP | -0.305 |
| RRIRYRPPRLPRPRPRPGTMPRP | -0.139 |

| Sequence | shrunken log2 fold change |
| --- | --- |
| RRIRSRPPRLPRPRPRPYWTPRP | -0.141 |
| RRIRLRPPRLPRPRPRPSSCPRP | -0.277 |
| RRIRMRPPRLPRPRPRPCEEPRP | 0.0566 |
| RRIRWRPPRLPRPRPRPMGYPRP | -0.132 |
| RRIRFRPPRLPRPRPRPEPTPRP | 0.805 |
| RRIRQRPPRLPRPRPRPQMGPRP | -0.553 |
| RRIRPRPPRLPRPRPRPTIQPRP | -0.101 |
| RRIRPRPPRLPRPRPRPTVNPRP | -0.157 |
| RRIRGRPPRLPRPRPRPMNPPRP | 0.217 |
| RRIRDRPPRLPRPRPRPNCQPRP | 0.156 |
| RRIRSRPPRLPRPRPRPNFNPRP | -0.298 |
| RRIRCRPPRLPRPRPRPHVSPRP | -0.37 |
| RRIRIRPPRLPRPRPRPNMGPRP | -0.563 |
| RRIRARPPRLPRPRPRPWKKPRP | -0.0663 |
| RRIRMRPPRLPRPRPRPADFPRP | 0.0087 |
| RRIRLRPPRLPRPRPRPWQYPRP | -0.0471 |
| RRIRYRPPRLPRPRPRPENGPRP | 0.0143 |
| RRIRSRPPRLPRPRPRPHIKPRP | -0.255 |
| RRIRIRPPRLPRPRPRPYNPPRP | -0.276 |
| RRIRWRPPRLPRPRPRPIWVPRP | -0.0257 |
| RRIRVRPPRLPRPRPRPYKHPRP | -0.81 |
| RRIRDRPPRLPRPRPRPCIEPRP | -0.158 |
| RRIRDRPPRLPRPRPRPIVHPRP | -0.25 |
| RRIRARPPRLPRPRPRPRLAPRP | 1.53 |
| RRIRFRPPRLPRPRPRPEDMPRP | 0.000714 |

| Sequence | shrunken log2 fold change |
| --- | --- |
| RRIRTRPPRLPRPRPRPKCFPRP | -0.384 |
| RRIRHRPPRLPRPRPRPQPCPRP | 0.0971 |
| RRIRNRPPRLPRPRPRPAFWPRP | 0.0558 |
| RRIRVRPPRLPRPRPRPFFGPRP | -0.0414 |
| RRIRARPPRLPRPRPRPTQNPRP | 1.05 |
| RRIRERPPRLPRPRPRPMPWPRP | 0.0819 |
| RRIRARPPRLPRPRPRPSMSPRP | -0.105 |
| RRIRFRPPRLPRPRPRPQKFPRP | -0.259 |
| RRIRWRPPRLPRPRPRPTAIPRP | 0.806 |
| RRIRARPPRLPRPRPRPYTNPRP | -1.06 |
| RRIRKRPPRLPRPRPRPHTWPRP | 0.0484 |
| RRIRGRPPRLPRPRPRPNNNPRP | -0.0957 |
| RRIRPRPPRLPRPRPRPYNSPRP | -0.55 |
| RRIRWRPPRLPRPRPRPNSNPRP | -0.583 |
| RRIRIRPPRLPRPRPRPDCSPRP | 0.0951 |
| RRIRIRPPRLPRPRPRPSREPRP | -0.0977 |
| RRIRERPPRLPRPRPRPKVWPRP | 0.332 |
| RRIRLRPPRLPRPRPRPQDDPRP | -0.224 |
| RRIRTRPPRLPRPRPRPLAHPRP | -0.256 |
| RRIRQRPPRLPRPRPRPDASPRP | 0.0949 |
| RRIRQRPPRLPRPRPRPLRTPRP | 0.691 |
| RRIRSRPPRLPRPRPRPADVPRP | 0.438 |
| RRIRWRPPRLPRPRPRPCNHPRP | -0.427 |
| RRIRFRPPRLPRPRPRPAPEPRP | 0.81 |
| RRIRSRPPRLPRPRPRPKNQPRP | -0.177 |

| Sequence | shrunken log2 fold change |
| --- | --- |
| RRIRVRPPRLPRPRPRPPCVPRP | -0.112 |
| RRIRYRPPRLPRPRPRPPVRPRP | 0.0631 |
| RRIRERPPRLPRPRPRPRYPPRP | 0.00273 |
| RRIRQRPPRLPRPRPRPMLAPRP | 0.0967 |
| RRIRSRPPRLPRPRPRPPCKPRP | -0.163 |
| RRIRHRPPRLPRPRPRPCGFPRP | 0.134 |
| RRIRQRPPRLPRPRPRPPESPRP | 0.528 |
| RRIRQRPPRLPRPRPRPGGEPRP | 0.218 |
| RRIRMRPPRLPRPRPRPADPPRP | 0.36 |
| RRIRERPPRLPRPRPRPRRAPRP | 0.566 |
| RRIRIRPPRLPRPRPRPYPKPRP | -0.0684 |
| RRIRARPPRLPRPRPRPIHMPRP | 0.0203 |
| RRIRFRPPRLPRPRPRPAKLPRP | -0.263 |
| RRIRHRPPRLPRPRPRPTPLPRP | 0.243 |
| RRIRYRPPRLPRPRPRPLSEPRP | -0.215 |
| RRIRVRPPRLPRPRPRPQSKPRP | -0.172 |
| RRIRERPPRLPRPRPRPDLSPRP | -0.349 |
| RRIRARPPRLPRPRPRPICLPRP | 0.425 |
| RRIRCRPPRLPRPRPRPRAWPRP | 0.24 |
| RRIRCRPPRLPRPRPRPWRMPRP | -0.116 |
| RRIRLRPPRLPRPRPRPKQIPRP | 0.0389 |
| RRIRFRPPRLPRPRPRPGNQPRP | -0.00933 |
| RRIRSRPPRLPRPRPRPWRIPRP | -0.0443 |
| RRIRDRPPRLPRPRPRPKKEPRP | 0.0609 |
| RRIRIRPPRLPRPRPRPKRDPRP | -0.106 |

| Sequence | shrunken log2 fold change |
| --- | --- |
| RRIRKRPPRLPRPRPRPPAEPRP | 1.07 |
| RRIRARPPRLPRPRPRPCMWPRP | 0.117 |
| RRIRCRPPRLPRPRPRPGVIPRP | -0.0294 |
| RRIRSRPPRLPRPRPRPWKHPRP | -0.0883 |
| RRIRIRPPRLPRPRPRPDGIPRP | -0.0104 |
| RRIRKRPPRLPRPRPRPGSMPRP | 0.285 |
| RRIRSRPPRLPRPRPRPDHTPRP | -0.407 |
| RRIRPRPPRLPRPRPRPCYFPRP | -0.0997 |
| RRIRHRPPRLPRPRPRPTLLPRP | -0.281 |
| RRIRVRPPRLPRPRPRPNYYPRP | -0.373 |
| RRIRIRPPRLPRPRPRPHGCPRP | -0.282 |
| RRIRERPPRLPRPRPRPDQKPRP | -0.0097 |
| RRIRQRPPRLPRPRPRPHCFPRP | -0.111 |
| RRIRWRPPRLPRPRPRPNCVPRP | 0.0603 |
| RRIRSRPPRLPRPRPRPNVKPRP | -0.332 |
| RRIRVRPPRLPRPRPRPAIKPRP | -0.202 |
| RRIRWRPPRLPRPRPRPTKGPRP | 0.469 |
| RRIRQRPPRLPRPRPRPSIMPRP | -0.0993 |
| RRIRPRPPRLPRPRPRPRNCPRP | 0.0981 |
| RRIRWRPPRLPRPRPRPSHVPRP | -0.167 |
| RRIRYRPPRLPRPRPRPEACPRP | -0.0328 |
| RRIRARPPRLPRPRPRPFKKPRP | -0.0888 |
| RRIRDRPPRLPRPRPRPSFMPRP | 0.147 |
| RRIRKRPPRLPRPRPRPWRNPRP | -0.0406 |
| RRIRVRPPRLPRPRPRPEMFPRP | -0.0822 |

From the supplement of paper PMC9112550, “Optimization of the antimicrobial peptide Bac7 by deep mutational scanning” (BMC Biology, 2022)
